# From IntAct's records for PubMed 22986341
# B1: Wnt inhibitory factor 1 (Homo sapiens), Q9Y5W5 (parent)
# chain: MARRSAFPAAALWLWSILLCLLALRAEAGPPQEESLYLWIDAHQARVLIGFEEDILIVSEGKMAPFTHDFRKAQQRMPAIPVNIHSMNFTWQAAGQAEYFYEFLSLRSLDKGIMADPTVNVPLLGTVPHKASVVQVGFPCLGKQDGVAAFEVDVIVMNSEGNTILQTPQNAIFFKTCQQAECPGGCRNGGFCNERRICECPDGFHGPHCEKALCTPRCMNGGLCVTPGFCICPPGFYGVNCDKANCSTTCFNGGTCFYPGKCICPPGLEGEQCEISKCPQPCRNGGKCIGKSKCKCSKGYQGDLCSKPVCEPGCGAHGTCHEPNKCQCQEGWHGRHCNKRYEASLIHALRPAGAQLRQHTPSLKKAEERRDPPESNYIW
# partner: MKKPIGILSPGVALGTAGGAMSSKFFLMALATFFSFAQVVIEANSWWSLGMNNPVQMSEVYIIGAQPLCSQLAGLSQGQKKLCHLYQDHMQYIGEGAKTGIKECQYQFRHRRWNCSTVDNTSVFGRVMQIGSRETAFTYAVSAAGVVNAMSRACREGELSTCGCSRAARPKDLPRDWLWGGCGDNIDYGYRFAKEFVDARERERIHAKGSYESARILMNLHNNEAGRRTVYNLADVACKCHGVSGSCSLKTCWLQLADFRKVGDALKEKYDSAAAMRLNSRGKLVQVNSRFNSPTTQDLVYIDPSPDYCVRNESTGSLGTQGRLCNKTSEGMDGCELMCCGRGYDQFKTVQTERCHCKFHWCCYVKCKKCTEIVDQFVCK
# B2: Wnt inhibitory factor 1 (Homo sapiens), Q9Y5W5 (parent)
# chain: B1 chain
# Variants of: B1
# Conditions: with wnt5a_mouse Wnt5a
row,Variant,effect of a mutation on the interaction
1,W15R,increasing interaction

# Variants of: B2
# Conditions: with wnt3a_mouse Wnt3a
row,Variant,effect of a mutation on the interaction
1,W15R,decreasing interaction
